Measurements: PMC6363788, “Crystal structures of human lysosomal EPDR1 reveal homology with the superfamily of bacterial lipoprotein transporters” (Communications Biology, 2019)

Target: the molecule itself
Experiment: SEC; in solution; the only column and buffer told are those of the purification step (Superdex200 16/60, 10 mM Tris-HCl pH 8.0, 100 mM NaCl)

B1: Human EPDR1 (ependymin-related protein 1), glycosylated (natural protein, UniProt Q9UM22-1 38-224, looked up)
chain: APRPCQAPQQWEGRQVMYQQSSGRNSRALLSYDGLNQRVRVLDERKALIPCKRLFEYILLYKDGVMFQIDQATKQCSKMTLTQPWDPLDIPQNSTFEDQYSIGGPQEQITVQEWSDRKSARSYETWIGIYTVKDCYPVQETFTINYSVILSTRFFDIQLGIKDPSVFTPPSTCQMAQLEKMSEDCSW
modifications: N-glycan at Asn130; disulfide bonds C42/C172, C113/C210, C88/C222
notes: EPDR1 (MERP-1; UCC1), human, Uniprot Q9UM22, residues 38-224; The N-terminal tag of the PB-T-PAF plasmid (secretion signal, protein A tag, thrombin site) was removed with thrombin; The six C-terminal histidines have no stated cleavage site, and the protein went through a second Ni2+ step after thrombin, so they were probably kept; also called MERP-1; UCC1; not shown: protein A, N-terminal, cleaved
In the case of B1, the “stoichiometry N” value is reported as 2.
